Measured values from the supplement of paper PMC9112550, “Optimization of the antimicrobial peptide Bac7 by deep mutational scanning” (BMC Biology, 2022).
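Further: peptides expressed intracellularly from a pBAD plasmid library in pooled LB shake-flask culture, induced with 0.3% L-arabinose, DNA abundance read by NGS, three biological replicates, DESeq2 with apeglm shrinkage.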

The sequences below were run on Escherichia coli TOP10 (assay: shrunken log2 fold change of peptide-encoding DNA abundance (4.5 h post-induction vs induction); higher = less antimicrobial activity (less host growth inhibition)). Conditions: time post-induction: 4.5 h; library: site-saturation at positions 5, 18, 19, 20.
For RRIRSRPPRLPRPRPRPVASPRP, the “shrunken log2 fold change” value was -0.151. RRIRHRPPRLPRPRPRPQSVPRP was tested, and the “shrunken log2 fold change” value was -0.267. In the case of RRIRFRPPRLPRPRPRPWDCPRP, the “shrunken log2 fold change” value is reported as 0.00208. RRIRERPPRLPRPRPRPWNYPRP was tested, and the “shrunken log2 fold change” value was -0.00131. In the case of RRIRTRPPRLPRPRPRPVYQPRP, the “shrunken log2 fold change” value is reported as -0.0843. RRIRNRPPRLPRPRPRPICYPRP was tested, and the “shrunken log2 fold change” value was -0.818. With RRIRGRPPRLPRPRPRPPTKPRP the “shrunken log2 fold change” value was 0.968. With RRIRDRPPRLPRPRPRPRASPRP the “shrunken log2 fold change” value was 0.214. For RRIRIRPPRLPRPRPRPRAKPRP, the “shrunken log2 fold change” value was 0.139. With RRIRERPPRLPRPRPRPECFPRP the “shrunken log2 fold change” value was 0.435. With RRIRIRPPRLPRPRPRPPWHPRP the “shrunken log2 fold change” value was -0.126. In the case of RRIRNRPPRLPRPRPRPKLYPRP, the “shrunken log2 fold change” value is reported as -0.289. In the case of RRIRSRPPRLPRPRPRPNQNPRP, the “shrunken log2 fold change” value is reported as -0.274. With RRIRHRPPRLPRPRPRPLHRPRP the “shrunken log2 fold change” value was -0.158. In the case of RRIRYRPPRLPRPRPRPQYKPRP, the “shrunken log2 fold change” value is reported as -0.179. In the case of RRIRPRPPRLPRPRPRPWEDPRP, the “shrunken log2 fold change” value is reported as 0.00408. For RRIRIRPPRLPRPRPRPTPYPRP, the “shrunken log2 fold change” value was -0.44. With RRIRLRPPRLPRPRPRPLTKPRP the “shrunken log2 fold change” value was -0.0425. With RRIRRRPPRLPRPRPRPNMQPRP the “shrunken log2 fold change” value was 0.183. For RRIRFRPPRLPRPRPRPNNAPRP, the “shrunken log2 fold change” value was -0.271. For RRIRTRPPRLPRPRPRPKGQPRP, the “shrunken log2 fold change” value was 0.0118. In the case of RRIRNRPPRLPRPRPRPTSDPRP, the “shrunken log2 fold change” value is reported as -0.148. For RRIRNRPPRLPRPRPRPPPFPRP, the “shrunken log2 fold change” value was 0.47. RRIRWRPPRLPRPRPRPQLLPRP was tested, and the “shrunken log2 fold change” value was 0.115. For RRIRRRPPRLPRPRPRPLTQPRP, the “shrunken log2 fold change” value was 0.342. RRIRKRPPRLPRPRPRPKVCPRP was tested, and the “shrunken log2 fold change” value was -0.0666. For RRIRIRPPRLPRPRPRPMELPRP, the “shrunken log2 fold change” value was -0.000689. In the case of RRIRQRPPRLPRPRPRPPTCPRP, the “shrunken log2 fold change” value is reported as 0.224. For RRIRGRPPRLPRPRPRPGKLPRP, the “shrunken log2 fold change” value was 0.461. With RRIRERPPRLPRPRPRPSGEPRP the “shrunken log2 fold change” value was -0.157. With RRIRRRPPRLPRPRPRPYDGPRP the “shrunken log2 fold change” value was -0.101. RRIRCRPPRLPRPRPRPVNVPRP was tested, and the “shrunken log2 fold change” value was -0.249. In the case of RRIRIRPPRLPRPRPRPPFNPRP, the “shrunken log2 fold change” value is reported as -0.473. For RRIRIRPPRLPRPRPRPMNGPRP, the “shrunken log2 fold change” value was 0.00766. With RRIRMRPPRLPRPRPRPHGPPRP the “shrunken log2 fold change” value was 0.752. With RRIRPRPPRLPRPRPRPLECPRP the “shrunken log2 fold change” value was -0.000998. In the case of RRIRNRPPRLPRPRPRPTYLPRP, the “shrunken log2 fold change” value is reported as -0.533. In the case of RRIRKRPPRLPRPRPRPYVKPRP, the “shrunken log2 fold change” value is reported as -0.312. With RRIRHRPPRLPRPRPRPSGKPRP the “shrunken log2 fold change” value was -0.0266. With RRIRGRPPRLPRPRPRPPHDPRP the “shrunken log2 fold change” value was 1.27. With RRIRYRPPRLPRPRPRPWYYPRP the “shrunken log2 fold change” value was -0.00865. For RRIRERPPRLPRPRPRPFGWPRP, the “shrunken log2 fold change” value was 0.213. For RRIRKRPPRLPRPRPRPVESPRP, the “shrunken log2 fold change” value was 0.0629. RRIRFRPPRLPRPRPRPCTLPRP was tested, and the “shrunken log2 fold change” value was -0.471. In the case of RRIRKRPPRLPRPRPRPSQQPRP, the “shrunken log2 fold change” value is reported as 0.312. For RRIRLRPPRLPRPRPRPEAAPRP, the “shrunken log2 fold change” value was 0.732. RRIRSRPPRLPRPRPRPKRVPRP was tested, and the “shrunken log2 fold change” value was 0.0219. RRIRQRPPRLPRPRPRPTMEPRP was tested, and the “shrunken log2 fold change” value was -0.0535. For RRIRIRPPRLPRPRPRPCYWPRP, the “shrunken log2 fold change” value was -0.131. For RRIRPRPPRLPRPRPRPDLQPRP, the “shrunken log2 fold change” value was -0.221. In the case of RRIRLRPPRLPRPRPRPNNGPRP, the “shrunken log2 fold change” value is reported as 0.0736. With RRIRMRPPRLPRPRPRPHYKPRP the “shrunken log2 fold change” value was -0.539. With RRIRERPPRLPRPRPRPCSPPRP the “shrunken log2 fold change” value was -0.286. RRIRHRPPRLPRPRPRPPYPPRP was tested, and the “shrunken log2 fold change” value was -0.0246. With RRIRIRPPRLPRPRPRPDTWPRP the “shrunken log2 fold change” value was -0.239. In the case of RRIRARPPRLPRPRPRPSFPPRP, the “shrunken log2 fold change” value is reported as -0.0947. With RRIRIRPPRLPRPRPRPDKEPRP the “shrunken log2 fold change” value was -0.0239. In the case of RRIRPRPPRLPRPRPRPMHNPRP, the “shrunken log2 fold change” value is reported as -0.202. In the case of RRIRNRPPRLPRPRPRPLCAPRP, the “shrunken log2 fold change” value is reported as 0.194. RRIRFRPPRLPRPRPRPGTNPRP was tested, and the “shrunken log2 fold change” value was -0.254. For RRIRHRPPRLPRPRPRPEMTPRP, the “shrunken log2 fold change” value was 0.0257. RRIRKRPPRLPRPRPRPFVQPRP was tested, and the “shrunken log2 fold change” value was 0.034. In the case of RRIRLRPPRLPRPRPRPTARPRP, the “shrunken log2 fold change” value is reported as 1.13. With RRIRARPPRLPRPRPRPHCRPRP the “shrunken log2 fold change” value was -0.0687. With RRIRFRPPRLPRPRPRPGFGPRP the “shrunken log2 fold change” value was 0.337. In the case of RRIRPRPPRLPRPRPRPRYCPRP, the “shrunken log2 fold change” value is reported as -0.191. In the case of RRIRVRPPRLPRPRPRPFTVPRP, the “shrunken log2 fold change” value is reported as -0.105. RRIRERPPRLPRPRPRPRMNPRP was tested, and the “shrunken log2 fold change” value was 0.0757. With RRIRFRPPRLPRPRPRPKYSPRP the “shrunken log2 fold change” value was -0.14. RRIRARPPRLPRPRPRPPWHPRP was tested, and the “shrunken log2 fold change” value was 0.342. With RRIRTRPPRLPRPRPRPWEQPRP the “shrunken log2 fold change” value was 0.0248. With RRIRHRPPRLPRPRPRPSWQPRP the “shrunken log2 fold change” value was 0.0601. With RRIRWRPPRLPRPRPRPLLLPRP the “shrunken log2 fold change” value was 0.152. RRIRFRPPRLPRPRPRPTIEPRP was tested, and the “shrunken log2 fold change” value was -0.037. With RRIRTRPPRLPRPRPRPTNMPRP the “shrunken log2 fold change” value was -0.409.
